Test results as given in the supplement of paper PMC9170038.

Columns and labels:
MS2 coat protein [1] = assay: apparent KD of MS2 coat protein, switch ON state; designed switch direction (-1 OFF switch, 1 ON switch): -1; higher = weaker reporter binding; conditions: FMN input: 0 or 200 uM; Eterna round: R93 (includes R88 designs)
How it was run: (§1)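 Designed RNA switches were transcribed on-chip from Illumina sequencing clusters. They were then titrated with SNAP-549-labelled MS2 coat protein (twofold steps, 0.7 or 1.5 nM to 3 µM; 0.8–1.5 h to 10–20 min per step) in 100 mM Tris-HCl pH 7.5, 80 mM KCl, 4 mM MgCl2, without or with constant ligand. Apparent KD is the per-design median of normalised cluster binding-curve fits.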

MS2 coat protein [2] = assay: apparent KD of MS2 coat protein, switch OFF state (with FMN for OFF switches, without FMN for ON switches); designed switch direction (-1 OFF switch, 1 ON switch): -1; higher = weaker reporter binding; conditions: FMN input: 0 or 200 uM; Eterna round: R93 (includes R88 designs)
How it was run: as §1

Sequence	apparent KD of MS2 coat protein (MS2 coat protein [1])	apparent KD of MS2 coat protein (MS2 coat protein [2])
AAGUGCGCAGGAUAUACAUGAGGAUCACCCAUGUAAAGAAAAGAAAGAUCCGAAGAAAGUAGAAGGGCGUGCAA [Variant 1 of Mod 1 of Ex3 sub 3, by Tesla's Dusciple Round 1]	49.6 nM	209 nM
AGCAAGAGAGGAUAUACAUAAAAAAAAAAAGUCUGAUCCCUACAUGAGGAUCACCCAUGUAGAAGGCUCUGGCA [Ex2 Design 156: Sub-opt 20]	28.8 nM	26.2 nM
GUGUACAGAGGAUAUACUAAAGCAUGGAAACAUGCAAGAUCACAUGAGGAUCACCCAUGUAGAAGGCUGUACAC [Ex2: 741]	62.3 nM	529 nM
AAAAAGGUAGGAUAUACGAAAAAAAAAGGUGAAAAAAAAAAACAUGAGGAUCACCCAUGUAGAAGGACCAAAAA [Ex 2 sub 1 70% 2]	39.3 nM	76.7 nM
AACAAACAUGAGGAUCACCCAUGUCAGGAUAUCCGAAAUAAAGAAACAAUAAUAAUAAGGAGAAGGGACUAAAU [Ex1 sub 2]	35.5 nM	34.1 nM
AAAAAACAUGAGGAUCACCCAUGUGAGGAUAUCGAUAUUAAAGACACCCACUUAAUGGCGAGAAGGCGCAAAAA [Brourd 613 Mod 20 - Jieux - Exclusion 1]	25.4 nM	26.5 nM
GACGAGUGAGGAUAUGUAAAAAAAAGAGAAGAGAAGAGAGAACAGAAGGCACAUGAGGAUCACCCAUGUAGGGA [Default title]	114 nM	71 nM
AAAAAACAUGAGGAUCACCCAUGUGAGGAUAUCGAAAAGUCAAAGAAAAAGACGAAAACGAGAAGGCACAAAAA [Mat - Mod of Eli 2]	28.1 nM	43.6 nM
CUCAUGUAAGGAUAUGACUACAUAAAAAAAAAAAAAUGUAGUCAGAAGGUACAUGAGGAUCACCCAUGUACAAA [Brourd - Exclusion 4 - Sub 3]	59 nM	25.2 nM
AGCUAGUCAGGAUAUACAAAAUGAUUGCAAAAGCAAUCAACACAUGAGGAUCACCCAUGUAGAAGGGACUAGCA [Mat - Exclusion 2 - JL-Eli mod - D44]	19 nM	19.4 nM
AAAAAGUGAGGAUAUUCGGAUAGGAAAACGAAAACCUAUCCGAAGAAGGCACAUGAGGAUCACCCAUGUGAAAG [Mat - Exaclusion 4 - Eli mod - D42]	28 nM	29.4 nM
CUCAUGUUAGGAUAUAAAUGAAAUGAAGUGAAAGAAAAGAAUUAGAAGGAACAUGAGGAUCACCCAUGUUAGAA [EteRNA is fun!]	47.8 nM	37.6 nM
AAGAAGUGAGGAUAUGUCUGUGCGAAAAAAAAAAAGUGCAGACAGAAGGCACAUGAGGAUCACCCAUGUAAAAA [Florian 65% 2]	37.5 nM	48.1 nM
ACCUGACAUGAGGAUCACCCAUGUCAGGAUAUGACUUCGAAAAUAAAAUAAAACGAUGUCAGAAGGGACAUGGG [Design 71: Sub-opt PB]	21.8 nM	15.3 nM
AAGGUAGGAGGAUAUACAUAGAUACAGAUACAUGUAGACGUACAUGAGGAUCACCCAUGUAGAAGGCCUAUAUA [Mat - Same state - Mayanna Mod - D147]	97.3 nM	107 nM
ACAAGACAUGAGGAUCACCCAUGUGAGGAUAUGCUCGGAUGACAUGACGUUAGCUAACGCAGAAGGCACAAUAA [Exclusion 1]	28.7 nM	36.7 nM
AACAGAACAGGAUAUACAUGAGGAUCACCCAUGUCACAACAAAGCAGCGCAACACAAAGUAGAAGGGUUAUGGA [Ruby 14]	31.8 nM	40.9 nM
UACGUAUGAGGAUAUACAAACAGAAAAAUCAGACAUAACAGACAUGAGGAUCACCCAUGUAGAAGGCAUAUACA [JR_Exc002_Sub903]	20.1 nM	15.3 nM
AUAAAACAUGAGGAUCACCCAUGUGAGGAUAUGCGAAAUAAAGAAAUAAAUAAAUAAAGCAGAAGGCACAAUAA [Ex 1 Tesla 1]	34.6 nM	21.9 nM
CCUACGUGAGGAUAUGCGGAUAACACGUUAGACAAAUAGACGCAGAAGGCACAUGAGGAUCACCCAUGUGAACC [JR_Exc004_Sub317]	21.9 nM	17.6 nM
AAACGUACAGGAUAUACGAAAAGAUUACGAAAGUAAUCGGGACAUGAGGAUCACCCAUGUAGAAGGGUACGAAA [Mod2 of Meechl 64% 4]	48 nM	61.7 nM
AAGGGACAUGAGGAUCACCCAUGUUAGGAUAUGCUAUGGAAAAUAAAAUAAAAACAUAGCAGAAGGAACAAAAA [Mat - Exclusion 1 - Eli mod - D36]	43.2 nM	60.5 nM

Sequence	apparent KD of MS2 coat protein (MS2 coat protein [1])	apparent KD of MS2 coat protein (MS2 coat protein [2])
AAAAAACAUGAGGAUCACCCAUGUGAGGAUAUCGCUAGUGAGGCCAUAGUGUCAGUGAUGAGAAGGCACAUAAA [Brourd 613 Mod 9 - Jieux - Exclusion 1]	37.7 nM	30.8 nM
AAAAAACAUGAGGAUCACCCAUGUAAGGAUAUGCAAGCAAGAAGAAAGAACAGAAAAAGCAGAAGGUACAAAAA [Amethyst 72]	25.3 nM	35.9 nM
AAGAAGGUAGGAUAUACUAGGGCAACUAAUGCAAAGAUAAAACAUGAGGAUCACCCAUGUAGAAGGGCCAGAAA [JR_Exc002_Sub401]	33.8 nM	35.4 nM
AAAAAGUCAGGAUAUACGAAAAAAAAAAAAAAAAAAAAAAAGUAGAAGGGACAUGAGGAUCACCCAUGUAAAAA [Exclusion 4]	88.9 nM	27.1 nM
AACUGACAUGAGGAUCACCCAUGUCAGGAUAUGCUUAAUAAAAAAAAAAAAAAAUGAUGCAGAAGGGAUAUGGG [Amethyst 56]	23.7 nM	18.9 nM
GAAAACCUAGGAUAUACAUGAGGAUCACCCAUGUCAGUAGACUGGGAAAGGUCUCUCAGUAGAAGGAGGACCCG [Zaered]	509 nM	437 nM
GAAAAACAUGAGGAUCACCCAUGUAAGGAUAUGCGAAAAUAAAAUAAAAUAAAAUAAAGCAGAAGGUACAAAAG [Mat - Exclusion 1 - Eli mod - D2]	34.7 nM	58.4 nM
AAAAAACAUGAGGAUCACCCAUGUCAGGAUAUGCGAAGCAAAAAAAAAAAAAAGCGAAGCAGAAGGGACUAAAA [Exclusion1 Malc#5]	38.2 nM	32.9 nM
AAGAAGUCAGGAUAUGCUGCUCGUCACUUGCGUGAUGAGUAGCAGAAGGGACAUGAGGAUCACCCAUGUAAAGA [Exclusion4-cac2]	50.7 nM	65.6 nM
AGAAAGCGAGGAUAUGCUCGGGUUGAAUGACGAGAGAAUACACAUGAGGAUCACCCAUGUAGAAGGUGUAUAAA [JR_Exc002_Sub1712]	54 nM	35.1 nM
AAAAAGGCAGGAUAUACGUACAUGUCAAAAGACGUGAAGGGACAUGAGGAUCACCCAUGUAGAAGGGUCAAGAA [JL Stem Breaker 19]	128 nM	61.9 nM
GCUUUGCAAGGAUAUACAUGAGGAUCACCCAUGUGAGAGAAAAAAGUGAGAAAGAAAAGUAGAAGGUGCGGAGG [salish99-ex3-120]	34.2 nM	44 nM
AGUUGGCGAGGAUAUACAUGAGGAUCACCCAUGUAAAAUAAAUAAAAAGGGAAAAAGAGUAGAAGGCGCUGACA [73%, Moding Norbert Elias, 8]	42.6 nM	192 nM
AAAAAACAUGAGGAUCACCCAUGUCAGGAUAUCGAAAGAAAAAAAAAGAAAAAAAAAACGAGAAGGGACAAAAA [Amethyst 28]	56.1 nM	30.3 nM
AAAAAACAUGAGGAUCACCCAUGUAAGGAUAUGCUAGGAAAAAGAAAAAUAAAAACUAGCAGAAGGUACAUAAA [JL wbt mod 10]	25.3 nM	30.6 nM
AGCUAGUCAGGAUAUACAAACAUGUCAAAAGACGUGAAAAGACAUGAGGAUCACCCAUGUAGAAGGGACUAGCA [Mat - Exclusion 2 - JL mod - D14]	29.8 nM	90.5 nM
AACAGUACAGGAUAUACAUGAGGAUCACCCAUGUAAAAUAAAUAAAAAUAAAAGGGAAGUAGAAGGGUACUGGA [Moding Maslow revisited (73) 17]	31.6 nM	46.5 nM
AAAAAAAAAGGAUAUAAAAAAAAAAGUCAGGAUAUAGGAAACUAGAAGGGACAUGAGGAUCACCCAUGUAAAAA [Meechl Ex4 R2 m0]	63.5 nM	40.8 nM
GAAAAGUCAGGAUAUACAGAAAAAAAAACGAAAAAAAAUCUGUAGAAGGGACAUGAGGAUCACCCAUGUUAAAG [Mat - Exclusion 4 - Mayanna - D126]	38 nM	23.6 nM
AACAAACAUGAGGAUCACCCAUGUCAGGAUAUGCAUAAAUAAAUAAAUAAAUAAAUAAGCAGAAGGGACACAAC [Amethyst 90]	45.1 nM	53.3 nM
AAAAAGACAGGAUAUACGUGAAAAAUAAAAAUGUAAAAAAAACAUGAGGAUCACCCAUGUAGAAGGGUCAAAAA [Ecx-I 62% 3]	59.3 nM	61.8 nM
AAAAAGUCAGGAUAUAUGCGAAAAAUAAAAAAAAUAAAAGCAUAGAAGGGACAUGAGGAUCACCCAUGUUAAAA [Ex 4 May 16]	36.6 nM	26.6 nM
